Experiments:
[1] = biological target: SHPTP1 (endogenous, activated human T cells) (human, UniProt P29350 1-595, limits assumed); test: co-immunoprecipitation with 8C93D8 from activated human T cell lysates, Western blot
Experimental: (§1) To identify the protein tyrosine phosphatase associated with CD2BP1, activated human T cells were disrupted in lysis buffer at 30 ×10^6/ml and the supernatant collected as described above. After preclearing with control beads (CNBr activated beads linked to nonspecific mouse IgG at 5 mg/ml, Sigma) overnight, the supernatant was diluted to 10 ×10^6 cells/ml in lysis buffer containing 0.1% bovine serum albumin (BSA). CD2BP1 and any associated molecules were immunoprecipitated by incubation at 4° C. for 3 h with CNBr beads coupled to either anti-CD2BP1 mAb 8C93D8 or, as a control, nonspecific mouse IgG. After two washes in lysis buffer and one wash in TBS, the immunocomplexes on the beads were eluted by heating at 65° C. for 20 min in SDS sample buffer and subjected to 12.5% reducing SDS-PAGE. After electrophoresis, proteins on the gel were transferred to nitrocellulose for Western blotting. The membranes were then probed with different primary antibodies: rabbit anti-human PTP-PEST (CSH8) 1:1000 (Garton and Tonks, 1994), rabbit anti-human FLP (aEN12) 1:1000 (Dosil et al., 1996), goat anti-human SHPTP1 (Santa Cruz) 1:100, rabbit antihuman SHPTP2 (Santa Cruz) 1:100, followed by washing and incubation with the secondary HRPO-conjugated goat anti-rabbit antibody (1:5000) or donkey anti-goat antibody (Santa Cruz) 1:2000, and signals developed by ECL. […]

[2] = biological target: T1, SHPTP2 (endogenous, activated human T cells) (human, UniProt Q06124 2-593); test: as above
T1 sequence (looked up): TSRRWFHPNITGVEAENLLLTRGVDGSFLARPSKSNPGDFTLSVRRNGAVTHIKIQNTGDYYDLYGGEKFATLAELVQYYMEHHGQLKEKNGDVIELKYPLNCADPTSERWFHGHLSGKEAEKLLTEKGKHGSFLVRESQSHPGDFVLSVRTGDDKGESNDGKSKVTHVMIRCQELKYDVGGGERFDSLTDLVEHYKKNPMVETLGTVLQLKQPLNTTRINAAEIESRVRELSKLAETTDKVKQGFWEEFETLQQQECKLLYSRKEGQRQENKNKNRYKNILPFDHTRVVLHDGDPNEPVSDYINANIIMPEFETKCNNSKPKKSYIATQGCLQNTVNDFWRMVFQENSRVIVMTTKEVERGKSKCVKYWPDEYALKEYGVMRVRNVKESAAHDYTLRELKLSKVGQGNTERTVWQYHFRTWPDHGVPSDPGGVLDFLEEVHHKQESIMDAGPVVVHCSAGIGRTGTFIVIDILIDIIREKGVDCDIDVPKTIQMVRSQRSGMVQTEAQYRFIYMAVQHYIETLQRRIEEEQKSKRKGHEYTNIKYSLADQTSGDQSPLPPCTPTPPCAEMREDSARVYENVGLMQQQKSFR
Experimental: as §1

SHPTP1 (endogenous, activated human T cells), sequence (P29350 whole entry): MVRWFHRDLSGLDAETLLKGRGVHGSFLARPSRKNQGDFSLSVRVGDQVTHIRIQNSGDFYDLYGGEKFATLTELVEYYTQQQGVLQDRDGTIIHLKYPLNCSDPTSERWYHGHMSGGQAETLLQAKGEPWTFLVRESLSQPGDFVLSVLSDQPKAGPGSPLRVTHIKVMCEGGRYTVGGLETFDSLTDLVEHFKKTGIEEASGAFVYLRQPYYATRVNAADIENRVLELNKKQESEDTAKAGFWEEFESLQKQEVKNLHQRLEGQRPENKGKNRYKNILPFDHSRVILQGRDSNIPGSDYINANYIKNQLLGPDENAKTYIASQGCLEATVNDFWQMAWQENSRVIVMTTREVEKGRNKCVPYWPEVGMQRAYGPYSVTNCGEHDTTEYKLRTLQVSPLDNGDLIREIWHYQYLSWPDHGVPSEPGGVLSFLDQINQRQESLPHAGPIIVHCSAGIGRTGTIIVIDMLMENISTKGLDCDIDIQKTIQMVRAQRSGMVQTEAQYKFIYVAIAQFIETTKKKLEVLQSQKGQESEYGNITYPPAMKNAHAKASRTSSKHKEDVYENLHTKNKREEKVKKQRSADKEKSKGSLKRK

B1: CD2BP1 protein (endogenous, activated human T cells) (other)
chain: MMPQLQFKDAFWCRDFTAHTGYEVLLQRLLDGRKMCKDMEELLRQRAQAEERYGKELVQIARKAGGQTEINSLRASFDSLKQQMENVGSSHIQLALTLREELRSLEEFRERQKEQRKKYEAVMDRVQKSKLSLYKKAMESKKTYEQKCRDADDAEQAFERISANGHQKQVEKSQNKARQCKDSATEAERVYRQSIAQLEKVRAEWEQEHRTTCEAFQLQEFDRLTILRNALWVHSNQLSMQCVKDDELYEEVRLTLEGCSIDADIDSFIQAKSTGTEPPAPVPYQNYYDREVTPLTSSPGIQPSCGMIKRFSGLLHGSPKTTSLAASAASTETLTPTPERNEGVYTAIAVQEIQGNPASPAQEYRALYDYTAQNPDELDLSAGDILEVILEGEDGWWTVERNGQRGFVPGSYLEKL
notes: Endogenous protein
[1]
  binding result: no binding
[2]
  binding result: no binding
